Here are results for 3 proteins from patent publication US20100047255.

Series [1] has as its target GST-ISG15, P05161.
The target of series [2] is GST-Ub, P0CG48.
The target in series [3] is GST-Nedd8, Q15843.
The target in series [4] is T1, Use1 purified from bacteria.
T1 chain: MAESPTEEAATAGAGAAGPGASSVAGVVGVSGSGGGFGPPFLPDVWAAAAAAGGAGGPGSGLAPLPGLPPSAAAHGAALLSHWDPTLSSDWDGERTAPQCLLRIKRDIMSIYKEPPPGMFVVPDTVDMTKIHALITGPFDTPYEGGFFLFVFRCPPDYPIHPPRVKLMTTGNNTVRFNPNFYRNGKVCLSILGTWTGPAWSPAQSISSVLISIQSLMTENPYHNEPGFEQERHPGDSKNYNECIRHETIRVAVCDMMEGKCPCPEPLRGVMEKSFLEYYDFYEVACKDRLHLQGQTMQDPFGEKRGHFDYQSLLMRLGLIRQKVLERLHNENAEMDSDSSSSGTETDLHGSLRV

Chain of GST-Ub, P0CG48 (P0CG48 whole entry, looked up): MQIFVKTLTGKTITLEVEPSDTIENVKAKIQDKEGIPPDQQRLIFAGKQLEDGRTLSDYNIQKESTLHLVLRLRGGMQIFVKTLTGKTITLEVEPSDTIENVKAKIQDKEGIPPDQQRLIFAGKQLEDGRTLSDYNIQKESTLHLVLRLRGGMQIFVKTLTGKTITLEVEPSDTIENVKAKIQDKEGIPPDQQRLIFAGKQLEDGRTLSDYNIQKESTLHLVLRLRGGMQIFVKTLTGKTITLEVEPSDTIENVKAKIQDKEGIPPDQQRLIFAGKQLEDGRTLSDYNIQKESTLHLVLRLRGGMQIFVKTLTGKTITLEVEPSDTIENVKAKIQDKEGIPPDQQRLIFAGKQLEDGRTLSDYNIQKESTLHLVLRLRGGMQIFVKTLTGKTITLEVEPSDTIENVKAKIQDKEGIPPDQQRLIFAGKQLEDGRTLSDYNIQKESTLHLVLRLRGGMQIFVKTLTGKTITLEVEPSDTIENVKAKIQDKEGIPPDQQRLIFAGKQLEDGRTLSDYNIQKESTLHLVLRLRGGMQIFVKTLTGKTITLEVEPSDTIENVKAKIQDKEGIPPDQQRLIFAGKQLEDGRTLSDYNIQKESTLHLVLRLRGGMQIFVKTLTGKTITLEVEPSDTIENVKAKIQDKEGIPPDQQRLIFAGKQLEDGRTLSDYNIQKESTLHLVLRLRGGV
Chain of GST-Nedd8, Q15843 (Q15843 whole entry, looked up): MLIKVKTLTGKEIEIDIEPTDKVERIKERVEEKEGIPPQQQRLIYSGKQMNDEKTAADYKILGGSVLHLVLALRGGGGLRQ
Chain of GST-ISG15, P05161 (P05161 1-157): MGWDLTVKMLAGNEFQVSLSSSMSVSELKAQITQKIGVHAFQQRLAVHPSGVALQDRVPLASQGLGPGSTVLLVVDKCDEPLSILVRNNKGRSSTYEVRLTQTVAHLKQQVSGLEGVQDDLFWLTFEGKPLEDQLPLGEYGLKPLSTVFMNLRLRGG

B1: GST-Ube1L (protein)
chain: MDALDASKLLDEELYSRQLYVLGSPAMQRIQGARVLVSGLQGLGAEVAKNLVLMGVGSLTLHDPHPTCWSDLAAQFLLSEQDLERSRAEASQELLAQLNRAVQVVVHTGDITEDLLLDFQVVVLTAAKLEEQLKVGTLCHKHGVCFLAADTRGLVGQLFCDFGEDFTVQDPTEAEPLTAAIQHISQGSPGILTLRKGANTHYFRDGDLVTFSGIEGMVELNDCDPRSIHVREDGSLEIGDTTTFSRYLRGGAITEVKRPKTVRHKSLDTALLQPHVVAQSSQEVHHAHCLHQAFCALHKFQHLHGRPPQPWDPVDAETVVGLARDLEPLKRTEEEPLEEPLDEALVRTVALSSAGVLSPMVAMLGAVAAQEVLKAISRKFMPLDQWLYFDALDCLPEDGELLPSPEDCALRGSRYDGQIAVFGAGFQEKLRRQHYLLVGAGAIGCELLKVFALVGLGAGNSGGLTVVDMDHIERSNLSRQFLFRSQDVGRPKAEVAAAAARGLNPDLQVIPLTYPLDPTTEHIYGDNFFSRVDGVAAALDSFQARRYVAARCTHYLKPLLEAGTSGTWGSATVFMPHVTEAYRAPASAAASEDAPYPVCTVRYFPSTAEHTLQWARHEFEELFRLSAETINHHQQAHTSLADMDEPQTLTLLKPVLGVLRVRPQNWQDCVAWALGHWKLCFHYGIKQLLRHFPPNKVLEDGTPFWSGPKQCPQPLEFDTNQDTHLLYVLAAANLYAQMHGLPGSQDWTALRELLKLLPQPDPQQMAPIFASNLELASASAEFGPEQQKELNKALEVWSVGPPLKPLMFEKDDDSNFHVDFVVAAASLRCQNYGIPPVNRAQSKRIVGQIIPAIATTTAAVAGLLGLELYKVVSGPRPRSAFRHSYLHLAENYLIRYMPFAPAIQTFHHLKWTSWDRLKVPAGQPERTLESLLAHLQEQHGLRVRILLHGSALLYAAGWSPEKQAQHLPLRVTELVQQLTGQAPAPGQRVLVLELSCEGDDEDTAFPPLHYEL
Take B1: the “activation in vitro (SDS-PAGE, Coomassie); result: activated” value in series [1] was “While it was active toward ISG15, as expected”. For the same protein, the “activation in vitro (SDS-PAGE, Coomassie); result: not activated” value in series [2] is given as “it failed to activate GST-Ub”.

B2: Uba3/APPBP1 (protein)
chain 1: MADGEEPEKKRRRIEELLAEKMAVDGGCGDTGDWEGRWNHVKKFLERSGPFTHPDFEPSTESLQFLLDTCKVLVIGAGGLGCELLKNLALSGFRQIHVIDMDTIDVSNLNRQFLFRPKDIGRPKAEVAAEFLNDRVPNCNVVPHFNKIQDFNDTFYRQFHIIVCGLDSIIARRWINGMLISLLNYEDGVLDPSSIVPLIDGGTEGFKGNARVILPGMTACIECTLELYPPQVNFPMCTIASMPRLPEHCIEYVRMLQWPKEQPFGEGVPLDGDDPEHIQWIFQKSLERASQYNIRGVTYRLTQGVVKRIIPAVASTNAVIAAVCATEVFKIATSAYIPLNNYLVFNDVDGLYTYTFEAERKENCPACSQLPQNIQFSPSAKLQEVLDYLTNSASLQMKSPAITATLEGKNRTLYLQSVTSIEERTRPNLSKTLKELGLVDGQELAVADVTTPQTVLFKLHFTS
chain 2: MAQLGKLLKEQKYDRQLRLWGDHGQEALESAHVCLINATATGTEILKNLVLPGIGSFTIIDGNQVSGEDAGNNFFLQRSSIGKNRAEAAMEFLQELNSDVSGSFVEESPENLLDNDPSFFCRFTVVVATQLPESTSLRLADVLWNSQIPLLICRTYGLVGYMRIIIKEHPVIESHPDNALEDLRLDKPFPELREHFQSYDLDHMEKKDHSHTPWIVIIAKYLAQWYSETNGRIPKTYKEKEDFRDLIRQGILKNENGAPEDEENFEEAIKNVNTALNTTQIPSSIEDIFNDDRCINITKQTPSFWILARALKEFVAKEGQGNLPVRGTIPDMIADSGKYIKLQNVYREKAKKDAAAVGNHVAKLLQSIGQAPESISEKELKLLCSNSAFLRVVRCRSLAEEYGLDTINKDEIISSMDNPDNEIVLYLMLRAVDRFHKQQGRYPGVSNYQVEEDIGKLKSCLTGFLQEYGLSVMVKDDYVHEFCRYGAAEPHTIAAFLGGAAAQEVIKIITKQFVIFNNTYIYSGMSQTSATFQL
For B2, in series [3], the “activation in vitro (non-reducing gel); result: activated” value is recorded as “GST-Nedd8 is activated by Uba3/APPBP1 in vitro”.

B3: Flag-tagged Uba6 (protein)
chain: MEGSEPVAAHQGEKASCSSWGTGSTNKNLPIMSTASVEIDDALYSRQRYVLGDTAMQKMAKSHVFLSGMGGLGLEIAKNLVLAGIKAVTIHDTEKCQAWDLGTNFFLSEDDVVNKRNRAEAVLKHIAELNPYVHVTSSSAPFNETTDLSFLDKYQCVVLTEMKLPLQKKINDFCRSQCPPIKFISADVHGIWSRLFCDFGDEFEVLDTTGEEPKEIFISNITQTNPGIVTCLENHPHKLETGQFLTFREINGMTGLNGSIQQITVISPFSFSIGDTTELEPYLHGGIAVQVKTPKTVFFESLERQLKHPKCLIVDFSNPEAPLEIHTAMLALDQFQEKYSRKPNVGCQQDSEELLKLATSISETLEEKPDVNADIVHWLSWTAQGFLSPLAAAVGGVASQEVLKAVTGKFSPLCQWLYLEAADIVESLGKPECEEFLPRGDRYDALRACIGDTLCQKLQNLNIFLVGCGAIGCEMLKNFALLGVGTSKEKGMITVTDPDLIEKSNLNRQFLFRPHHIQKPKSYTAADATLKINSQIKIDAHLNKVCPTTETIYNDEFYTKQDVIITALDNVEARRYVDSRCLANLRPLLDSGTMGTKGHTEVIVPHLTESYNSHRDPPEEEIPFCTLKSFPAAIEHTIQWARDKFESSFSHKPSLFNKFWQTYSSAEEVLQKIQSGHSLEGCFQVIKLLSRRPRNWSQCVELARLKFEKYFNHKALQLLHCFPLDIRLKDGSLFWQSPKRPPSPIKFDLNEPLHLSFLQNAAKLYATVYCIPFAEEDLSADALLNILSEVKIQEFKPSNKVVQTDETARKPDHVPISSEDERNAIFQLEKAILSNEATKSDLQMAVLSFEKDDDHNGHIDFITAASNPRAKMYSIEPADRFKTKRIAGKIIPAIATTTATVSGLVALEMIKVTGGYPFEAYKNCFLNLAIPIVVFTETTEVRKTKIRNGISFTIWDRWTVHGKEDFTLLDFINAVKEKYGIEPTMVVQGVKMLYVPVMPGHAKRLKLTMHKLVKPTTEKKYVDLTVSFAPDIDGDEDLPGPPVRYYFSHDTD
On to B3, for which, in series [2], the “activation in vitro, titration of GST-Ub, anti-Flag immunoblot; result: activated” value was “Uba6 activated GST-Ub but not GST-Nedd8” and the “ubiquitin activation in vitro (non-reducing SDS-PAGE, Coomassie); result: activated” value was “Uba6 could activate ubiquitin”. The “charging of purified Use1 (2.5 µM) with increasing Flag-Uba6, 25 µM ubiquitin, 2 mM ATP; result: charged” value in series [4] is “Charging of purified Use1 by Uba6”. In addition, in series [3], the “activation in vitro, titration of GST-Nedd8, anti-Flag immunoblot; result: not activated” value is reported as “Uba6 activated GST-Ub but not GST-Nedd8”.
